According to the supplement of paper PMC9170038:

System: MS2 coat protein
Test: apparent KD of MS2 coat protein; designed switch direction (-1 OFF switch, 1 ON switch): -1; higher = weaker reporter binding
How it was run: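 Each step of the titration lasted 0.8–1.5 h at the lowest concentration and 10–20 min at the highest. The protein, SNAP-549-labelled MS2 coat protein, went from 0.7 or 1.5 nM doubling to 3 µM over RNA switches transcribed on Illumina chips by stalled E. coli RNA polymerase. Normalised cluster fluorescence was curve-fitted, and the per-design median over clusters is given as apparent KD.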

[1] = Eterna round: R95, input ligand: FMN 200 uM
[2] = Eterna round: R95, input ligand: microRNA oligo, concentration not stated
[3] = Eterna round: R95, input ligand: none
[4] = input ligand: microRNA oligo, concentration not stated

Sequence | apparent KD of MS2 coat protein (input ligand: FMN 200 uM) | apparent KD of MS2 coat protein (input ligand: none) | apparent KD of MS2 coat protein [1] | apparent KD of MS2 coat protein [2] | apparent KD of MS2 coat protein [3] | apparent KD of MS2 coat protein [4]
UAUUAGCAAGCGAGAUCCCACAUGAGGAUCACCCAUGUAAAAGCAUCCAGAAUUACUGGGUGCAAAGCUCGUCUUAU [Winner reversed engineered 7] (Eterna round: R97, puzzle: Sensor, turn-off variant 1) | 30.1 nM | 24.8 nM |  |  |  | 
GAUAGAGCAGGAUAUUCAAUAUAUCACAUGAGGAUCACCCAUGUCCAGCGAAAGCUGGAGGGAGAAGGGCUCUAUC [Mat - Exclusion 5 - Eli mod - D99] (puzzle: Exclusion 5) |  |  | 77.6 nM | 366 nM | 262 nM | 
GCUAGACAUGUCAGGAUAUGCUGUACCUUGGUACAGCAGAAGGGACAUGAGGAUCACCCAUGUGCCUAUCUAGC [JL-BMX4-4.05] (Eterna round: R97, puzzle: Brourd's mod of Exclusion 4) | 308 nM | 43.6 nM |  |  |  | 
ACAUGAGGAUCACCCAUGUGACCACAAUGGCUGAUGUAACGACAGGAUAUUCGUGAAUAUCUAACGAAGAAGGGUCAUGACUGG [Deportation 62 - Jieux - Exclusion NG 3] (Eterna round: R96, puzzle: Exclusion NG 3) | 98.8 nM | 60.2 nM |  |  |  | 52.7 nM
AUUGUAGAUGUGAGGAUAUCGUAGAUUUUUUGAAACGAGAAGGCACAUGAGGAUCACCCAUGUAAGAUGUAGGU [JR_BMOE4_Sub053] (puzzle: Brourd's mod of Exclusion 4) |  |  | 45.8 nM | 118 nM | 298 nM | 
AUAUUACAUGAGGAUCACCCAUGUGAGGAUAUGGAGCGAGACUGUCCUGUCGCGUACACCAGAAGGCGCGGGUG [1st #52] (Eterna round: R97, puzzle: Exclusion 1) | 183 nM | 118 nM |  |  |  | 
UUUAUAAUAAGAUCAAUUAAUUAACAUGAGGAUCACCCAUGUGAGGAUAUCAGCUCGAUUAGAGCUGAGAAGGCACAAUAUAAG [ExNG3/17-B1] (Eterna round: R96, puzzle: Exclusion NG 3) | 79.3 nM | 43.3 nM |  |  |  | 36.3 nM
UUUAUGUAAGGAUAUAUGAGUCACGGAAAUAAACCGUGAAGAUAGAAGGUACAUGAGGAUCACCCAUGUAAGGC [Mod of Anonveat 8 - Jieux - Exclusion 4] (Eterna round: R97, puzzle: Exclusion 4) | 40.1 nM | 22.9 nM |  |  |  | 
AGGGAUAAAGGAUAUACAUGAGGAUCACCCAUGUUGAGGAAAGUGAGAGGUGGCGAUAGUAGAAGGUUAGGUGG [JR_Exclu3_Sub083] (puzzle: Exclusion 3) |  |  |  | 79.9 nM |  | 
AGAUCACAUGAGGAUCACCCAUGUCAGGAUAUCGUCACUGGAGCUUCGGCUCCAGUGACGAGAAGGGAUAAUUA [E1/4-A1] (Eterna round: R97, puzzle: Exclusion 1) | 124 nM | 55 nM |  |  |  | 
UCCUUACAUGAGGAUCACCCAUGUCAGGAUAUCUCGGGCGGCUGAGGACCAGCCGCCCAGAGAAGGGACGAGGA [Dixeinis] (puzzle: Exclusion 1) |  |  | 38.6 nM | 23.1 nM | 31.3 nM | 
GCUUUUGGGCAAGGAUAUCCUGCGCUGUUCUGGUUCGUGUCUGUCACAUGAGGAUCACCCAUGUGGGAGAAGGUGCCUGUGGUG [Design 70] (Eterna round: R96, puzzle: Exclusion NG 2) | 17 nM | 19.2 nM |  |  |  | 14.7 nM
GAAAACGCAGAGGAUAUUCCAGAUCUAAGCUGCGAAGAAGGCUGCACAUGAGGAUCACCCAUGUGGUCUUUAAA [Maoned] (Eterna round: R96, puzzle: Exclusion 6) |  |  |  |  |  | 13.7 nM
AGCAGACGAGGAUAUGAUCAAUAAUACAUGAGGAUCACCCAUGUAAUACUGAUCCAUGGAUCAGAAGGCGUCUGCU [E5/5-A1] (Eterna round: R97, puzzle: Exclusion 5) | 23.5 nM | 16.4 nM |  |  |  | 
UGAAAGCUAGGAUAUACAUGAGGAUCACCCAUGUACCGGCUUGGCCCUGGUCCAAAGUGUAGAAGGAGCACGCC [Reedcedima] (puzzle: Exclusion 3) |  |  |  | 24.8 nM |  | 
AGCCCUAAUGUCAGGAUAUGCAUCCUUAAUGGACGGCAGAAGGGACAUGAGGAUCACCCAUGUAAAUAGAAAUU [Direised] (puzzle: Brourd's mod of Exclusion 4) |  |  |  | 31.4 nM |  | 

Sequence | apparent KD of MS2 coat protein (input ligand: FMN 200 uM) | apparent KD of MS2 coat protein (input ligand: none) | apparent KD of MS2 coat protein [1] | apparent KD of MS2 coat protein [2] | apparent KD of MS2 coat protein [3] | apparent KD of MS2 coat protein [4]
GGAUCGAAUGUCAGGAUAUGCUGGUCCUUGGAUCAGCAGAAGGGACAUGAGGAUCACCCAUGUCCUCUCGGUCC [Eli bmx4 4.52] (Eterna round: R97, puzzle: Brourd's mod of Exclusion 4) | 222 nM | 26.5 nM |  |  |  | 
AUUUGGUCAGGAUAUUGUUAGUUUAGUUGUUUGUAUUAGUUCGAGAAGGGACAUGAGGAUCACCCAUGUGAUUU [Ex4 #75] (Eterna round: R97, puzzle: Exclusion 4) | 87.1 nM | 100 nM |  |  |  | 
AACCUGUCAGGAUAUCAAUUCUGUGCGUGACUACAGGACGCUGAGAAGGGACAUGAGGAUCACCCAUGUUGACU [Eternabot (Original) Solution 33] (Eterna round: R97, puzzle: Exclusion 4) | 24.7 nM | 26.8 nM |  |  |  | 
GAGGAACAUGAGGAUCACCCAUGUAAGGAUAUGCAAAGAGAGGUAGUAGAAGGAGAAGGCAGAAGGUACAAGGA [JR_Exclu1_Sub074] (puzzle: Exclusion 1) |  |  | 47.7 nM | 36.1 nM | 50 nM | 
UUUUUAUAUGAAGGAUAUACUUAACAUGAGGAUCACCCAUGUGGUGUUGUGAGUGAGUGAGUUUAGUAGAAGGUCAAGUCUUUU [JMF's solution 36] (Eterna round: R96, puzzle: Exclusion NG 2) | 555 nM | 361 nM |  |  |  | 383 nM
UUUUAACAUGAGGAUCACCCAUGUGAGGAUAUCGAAAUUUAUAUUAAUAUUUAUAUUACGAGAAGGCACAUUUU [JMF 58] (puzzle: Exclusion 1) |  |  |  | 75.9 nM |  | 
GGAGGACGAGCAGGAUAUUUUCACAUGAGGAUCACCCAUGUGUAAUCAGGGUAAUCCUCCGCCGAAAAGAAGGGUUCGGAAUAA [Mat - Exclusion NG 2 - Mod of JL - D82] (Eterna round: R96, puzzle: Exclusion NG 2) | 60 nM | 70.5 nM |  |  |  | 52.4 nM
AGAGAAUAGUCAGGAUAUGUGAAUAGAUAGAGAACAGAAGGGACACAUGAGGAUCACCCAUGUGAAGUCUUGAGGCUGCAUGGA [Prohibition 22 - Jieux - Exclusion NG 1] (Eterna round: R96, puzzle: Exclusion NG 1) | 43.9 nM | 39 nM |  |  |  | 24.1 nM
UAAUUAAAUGUAAGGAUAUGGCAAUGCGGUGGCAGUUAGAAGGUACAUGAGGAUCACCCAUGUGUGUAUCGUGA [Eternabot (L1) Solution 93] (Eterna round: R97, puzzle: Brourd's mod of Exclusion 4) | 233 nM | 248 nM |  |  |  | 
UUAUUAUAUGUAGGAUAUGCGUAUUAUUAUUAUGCAGAAGGACAUGAGGAUCACCCAUGUAUAUUAUUAUUAUAUAUUAUAUAU [Title] (Eterna round: R96, puzzle: Exclusion NG 1) |  |  |  |  |  | 23.5 nM
AAAUAACCUCUAGGAUAUGUGUACGUAUAGUGCGCAGAAGGAGACAUGAGGAUCACCCAUGUACACACACAACAAACGACCACC (Eterna round: R96, puzzle: Exclusion NG 1) | 26.1 nM | 30.4 nM |  |  |  | 27.3 nM
AAGAAACAGCUAGGAUAUCAGACCAACAUGAGGAUCACCCAUGUCAAGGUCUUUCUUAGUAGGUUUGAGAAGGAGCCAUAAAUA [Xelequriqu] (Eterna round: R96, puzzle: Exclusion NG 2) | 11.7 nM | 11.2 nM |  |  |  | 9.11 nM
GUAUAACAUGAGGAUCACCCAUGUGAGGAUAUGCGAAUUUCAUCAAAAGAUGAAAUUUGCAGAAGGCACAGUAC [Omei Ex1 A12] (Eterna round: R97, puzzle: Exclusion 1) | 93 nM | 66.3 nM |  |  |  | 
GAUUAACAUGAGGAUCACCCAUGUGAGGAUAUGGACUUGCCCACUUACCCAUUAGAGUCUAGAAGGCGCAUCUG [1986#23] (Eterna round: R97, puzzle: Exclusion 1) | 48.4 nM | 49.8 nM |  |  |  | 
AGUACUAACACGCUUGUGUUAGUACAAUAAGCUUGUGAAACAUGAGGAUCACCCAUGUCCUCAUAAGCUCGUCUUAU [salish99_TOv2_r3_072] (puzzle: Sensor v3, turn-off variant 2) |  |  | 17 nM | 654 nM | 15.9 nM | 
